Substitutions are numbered along the chain they refer to. Read-outs that look alike come from different tables or passages of the source.
Columns and labels:
[1] = biological target: T1, recombinant human LIGHT-214E, FLAG-tagged extracellular domain (human); experiment: HTRF competition, LTβR-Fc binding to Flag-hLIGHT-214E
T1 construct: Trimer; Biotinylated in some assays
T1 chain: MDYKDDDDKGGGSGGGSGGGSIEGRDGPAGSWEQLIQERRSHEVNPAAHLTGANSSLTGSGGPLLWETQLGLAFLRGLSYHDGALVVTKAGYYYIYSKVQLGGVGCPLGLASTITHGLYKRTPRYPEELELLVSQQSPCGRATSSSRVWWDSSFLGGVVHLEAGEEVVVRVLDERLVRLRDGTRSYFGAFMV
Protocol: (§1) The following methods were carried out with a titration of inhibitor in order to establish the clone potency as measured by IC50 values in the assay. 5 μl of Flag-tagged hLIGHT (in-house) diluted to 2.5 nM final concentration (10 nM working concentration) in HTRF buffer with 5 μl of a titration of antibody purified from hybridoma supernatant diluted in HTRF assay buffer from 300 nM final (1200 nM working concentration) was pre-incubated for 1 hour at room temperature. To wells used to define total binding, 5 μl of LIGHT (10 nM working, 2.5 nM final) and 5 μl of hybridoma maintaining media (HMM,)) were added. To wells used to define non specific binding (receptor only) 10 μl of HMM was added. Total and non specific binding wells were pre-incubated for 1 hr at RT in the same plate as wells containing titration of inhibitor.
LIGHT receptor was diluted in HTRF assay buffer and added to all wells, 5 μl/well of HVEM-Fc or LTβR-Fc (R&D systems) at 1.2 nM for HVEM (0.3 nM final) and 0.4 nM for LTβR (0.1 nM final).

[2] = biological target: human LIGHT-214E, full length, expressed on the surface of CHO-S cells (human, UniProt O43557 1-240); experiment: FACS, CHO-S cells expressing hLIGHT-214E
[3] = biological target: T1, recombinant human LIGHT-214E, …; experiment: cell-based or functional assay
[4] = biological target: T2, recombinant human LIGHT-214K, FLAG-tagged extracellular domain (human); experiment: SPR ProteOn, mAb captured on anti-mouse IgG, LIGHT 256 nM, 25 C, apparent affinity
T2 construct: the IgK leader peptide is marked only by underlining (not visible here), so its residues were not removed; Trimer
T2 chain: T1 chain with E166K
Protocol: (§2) SPR analysis was carried out using the ProteOn™ XPR36 Array System (BioRad). Anti-mouse IgG (GE Healthcare BR-1008-38) was immobilised on a GLC biosensor surface using amine coupling, the surface was then blocked using 1M ethanolamine. […] Apparent affinities for the LIGHT-antibody interaction were determined using the 1:1 model inherent to the ProteOn XPR36 analysis software. The assay was run using HBS-EP (Teknova) as running buffer and carried out at 25° C.

[5] = biological target: T3, recombinant cynomolgus monkey LIGHT, FLAG-tagged extracellular domain (cynomolgus (Macaca fascicularis), UniProt E9NVF7 59-240); experiment: as above
T3 construct: extracellular domain; also called cynomolgus LIGHT; cyno LIGHT
Protocol: as §2
Target sequence in this assay (E9NVF7 entry or part of it): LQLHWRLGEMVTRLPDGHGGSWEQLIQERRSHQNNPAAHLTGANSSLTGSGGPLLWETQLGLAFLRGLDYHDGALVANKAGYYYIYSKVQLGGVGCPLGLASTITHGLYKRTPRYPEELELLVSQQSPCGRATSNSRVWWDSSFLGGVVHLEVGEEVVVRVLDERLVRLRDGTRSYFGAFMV

[6] = biological target: T1, recombinant human LIGHT-214E, …; experiment: HTRF competition, HVEM-Fc binding to Flag-hLIGHT-214E
Protocol: as §1

mouse LIGHT [7] = biological target: T4, mouse LIGHT (mouse, UniProt Q9QYH9 72-239, limits assumed); experiment: SPR ProteOn, mAb captured on anti-mouse IgG
T4 construct: also called murine LIGHT
T4 sequence (looked up): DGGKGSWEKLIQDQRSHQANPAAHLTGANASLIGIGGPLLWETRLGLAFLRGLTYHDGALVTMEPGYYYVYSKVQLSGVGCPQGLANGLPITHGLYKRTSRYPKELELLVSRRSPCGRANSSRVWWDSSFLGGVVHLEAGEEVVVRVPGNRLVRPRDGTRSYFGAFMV

[8] = biological target: T2, recombinant human LIGHT-214K, …; experiment: SPR ProteOn, mAb captured on anti-human IgG, 37 C
[9] = biological target: T5, rabbit LIGHT protein, FLAG-tagged extracellular domain (rabbit); experiment: SPR ProteOn, mAb captured on anti-human IgG, 25 C
T5 chain: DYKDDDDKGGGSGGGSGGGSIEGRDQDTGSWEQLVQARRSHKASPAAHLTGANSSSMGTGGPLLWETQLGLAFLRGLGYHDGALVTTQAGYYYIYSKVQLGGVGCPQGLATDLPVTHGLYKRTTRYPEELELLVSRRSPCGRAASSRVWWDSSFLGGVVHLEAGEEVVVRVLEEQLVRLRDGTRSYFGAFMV
Protocol: This created a capture surface suitable for capturing human antibodies. The LIGHT antibodies were captured on this anti-human IgG surface, and then human and rabbit LIGHT proteins were passed over captured LIGHT Abs at a concentration of 200 nM. A buffer injection was used to double reference the LIGHT binding sensorgrams. The assay was run at 25° C., using HBS-EP as running buffer.

[10] = biological target: T1, recombinant human LIGHT-214E, …; experiment: HTRF competition, AlexaFluor 647 HVEM-Fc binding to Flag-hLIGHT-214E
[11] = biological target: T1, recombinant human LIGHT-214E, …; experiment: HTRF competition, AlexaFluor 647 LTβR-Fc binding to Flag-hLIGHT-214E
[12] = biological target: T1, recombinant human LIGHT-214E, …; experiment: as above
Protocol: as §1
(§3) The final IgG4(PE) format lead panel was analysed for neutralization activity as in Example 3. Antibodies were tested for their ability to neutralize LIGHT binding to its receptors, HVEM and LTβR, in an HTRF assay. Antibodies were also tested for their ability to neutralize LIGHT-induced IL-8 release by HT29 colon carcinoma cells.
(§4) HTRF assays were performed as per Example 3, with the following modifications: HVEM-Fc and LTβR-Fc were labelled with AlexaFluor 647, and an anti-Flag K antibody (Cisbio) was used for detection.

[13] = biological target: T1, recombinant human LIGHT-214E, …; experiment: cell-based or functional assay
[14] = biological target: T1, recombinant human LIGHT-214E, …; experiment: HTRF competition, AlexaFluor 647 HVEM-Fc binding to Flag-hLIGHT-214E
Protocol: as §1, §3, §4

mouse LIGHT [15] = biological target: T4, mouse LIGHT; experiment: SPR ProteOn, mAb captured on anti-human IgG
[16] = biological target: T2, recombinant human LIGHT-214K, …; experiment: SPR ProteOn, mAb captured on anti-human IgG, 25 C, apparent affinity
[17] = biological target: T3, recombinant cynomolgus monkey LIGHT, …; experiment: SPR ProteOn, mAb captured on anti-human IgG, 37 C
[18] = biological target: T1, recombinant human LIGHT-214E, …; experiment: SPR ProteOn, mAb captured on anti-human IgG, 37 C
[19] = biological target: T1, recombinant human LIGHT-214E, …; experiment: SPR ProteOn, mAb captured on anti-mouse IgG, LIGHT 256 nM, 25 C, apparent affinity
Protocol: as §2

[20] = biological target: T2, recombinant human LIGHT-214K, …; experiment: SPR cross-binding study, IgG4(PE) format; column hLIGHT 214K Binder
Protocol: All antibodies tested in the competition SPR were in human IgG4(PE) format (see Example 5 for re-formatting methods). To investigate antibodies that may share the same binding region on LIGHT, an SPR based assay was carried out on the ProteOn™ XPR36 Array System. […] The anti-human IgG surface was used as a capture surface to capture test antibodies as “ligands” for analysis. Using the ProteOn™ XPR36 Array System ability to address the capture surface in either the vertical or horizontal orientation the assay was carried out as follows. The “Ligand” antibodies were captured in the vertical orientation, and then a 1 in 1000 dilution of mouse serum was used to block the capture surface in the horizontal orientation. LIGHT was then passed over the capture surface in the horizontal orientation and bound to the captured ligand antibody, after which the same ligand antibody was passed over the “antibody-LIGHT” complex, (LIGHT is a trimer, so this ensures all available LIGHT molecules are bound to by the Ligand antibody), again the second application of the ligand antibody was in the vertical orientation. […] Binding/no-binding is determined by monitoring the sensorgrams, which were double referenced using a non-LIGHT binding antibody as a control sample and was included with every set of ligand antibodies run. […]

B1: 18E04 (purified from hybridoma supernatant, mouse IgG) (antibody, V domains shown)
VH: QVLLVQSGAEVKKPGASVKVSCKASGYTFTHFDINWVRQATGQGLEWMGWMNPDSDNTDYAQEFQGRVTMTRDTSISTAYMELSSLRSEDTAVYYCARGGTTLDYWGQGTLVTVSS
VL: SYELTQPPSVSVSPGQTARITCSGDALPKKYAYWYQQKSGQAPVLVIYEDSKRPSGIPERFSGSSSGTMATLTISGAQVEDEADYYCYSTDSSDNHVIFGGGTKLTVL
notes: Murine C / human V chimeric IgG, lambda, purified from hybridoma supernatant
B1 was tested, and the IC50 [1] was 1.64 nM, the binding result [2] was “binds” and the “HT29 IL-8 release, IC50” value [3] was 327 pM. For the same binder, the Kd [4] was 2.33 nM, the Kd [5] was 3.11 nM and the IC50 [6] was 1.32 nM. B1: no binding (mouse LIGHT [7]).

B2: 01C02 in human IgG4(PE) format (antibody, V domains shown)
VH: QVQLVQSGAEVQKPGASVMVSCKASGYTFTYYGISWVRQAPGQGLEWMGWISANSGNTNYAQKFQGRVTMTTDTSTNTAYMELRSLRTDDTAVYYCAKGGVAVLEYWGQGTLVTVSS
VL: DIQLTQSPSFLSASVGDRVTITCWASQGISSYLAWYQQKPGKAPNLLIYVASTLQSGVPSRFSGSGSGTEFTLTISSLQPEDFATYYCQQLKIYPLTFGGGTKVEIK
With B2 the Kd [8] was 0.822 nM, the binding result [9] was “binds” and the IC50 [10] was 1.64 nM. For the same binder, the IC50 [11] was 3.48 nM, the IC50 [12] was 3.48 nM and the “HT29 IL-8 release, IC50” value [13] was 0.26 nM. For the same binder, the “HT29 IL-8 release, IC50” value [3] was 261 pM, the IC50 [14] was 1.64 nM and the binding result (mouse LIGHT [15]) was “no binding”.

B3: 01C06 in human IgG4(PE) format (antibody, V domains shown)
VH: QVQLVESGGGLVKPGGSLRLSCAASGFTFSDYYMNWIRQAPGKGLEWIADISSRDNTIYYADSVKGRFTISRDNAKNSLYLQMNSLRAEDTAVYYCARERGFGDYFGMDVWGQGTTVTVSS
VL: AIQLTQSPSSLSASVGDRVTIACRASQDISSALAWFRQTPGKTPKLLIYDASSLESGVPSRFLGSGSGTDFTLTISSLQPEDFAIYYCQQFNTYPLTFGGGTKVEIK
In the case of B3, the IC50 [10] is reported as 0.698 nM, the IC50 [11] is reported as 2.07 nM and the binding result [16] is reported as “binds”. For the same binder, the “HT29 IL-8 release, IC50” value [3] was 556 pM and the binding result (mouse LIGHT [15]) was “no binding”.

B4: 13H04 in human IgG4(PE) format (antibody, V domains shown)
VH: QVQLVQSGAEVKKPGASVKVSCKASGYTFTSYGISWVRQAPGQGLEWMGWISAHNANTNYAQKLQGRVTMTTDTSTSTAYMELRSLRSDDTAMYYCARLYRNWFDPWGQGTLVTVSS
VL: QSALTQPASVSGSPGQSITISCTGTSSDVGGYNYVSWYQQHPGKAPKLMIYDVSKRPSGVSNRFSGSKSGNTASLTISGLQAEDEADYYCCSYAGSSTLLFGGGTKLTVL
Binder B4 has a Kd [8] of 0.401 nM, a Kd [17] of 0.207 nM and a Kd [18] of 0.293 nM. The binding result [9] was “binds”, the IC50 [12] was 3.15 nM and the “HT29 IL-8 release, IC50” value [13] was 1.22 nM. The IC50 [14] was 1.29 nM.

B5: 98C07 (purified from hybridoma supernatant, mouse IgG) (antibody, V domains shown)
VH: QVQLVESGGGLVKPGGSLRLSCAASGFTFSDYYMSWIRQAPGKGLEWVSYISRSSFIYYSESVKGRFTISRDNAKNSLYLQMNSLRAEDTAVYYCARWELSPFDYWGQGTLVTVSS
VL: DIQMTQSPSSLSASVGDRVTITCRASQGISNYLAWFQQKPGKAPKSLIYAASSLQSGVPSKFSGSGSGTDFTLTISSLQPEDFATYFCQQYNTYPFTFGPGTKVDIK
notes: Murine C / human V chimeric IgG, kappa, purified from hybridoma supernatant
B5 was tested, and the IC50 [1] was 2.06 nM, the binding result [2] was “binds” and the “HT29 IL-8 release, IC50” value [3] was 166 pM. It also gave a Kd [4] of 296 nM, a Kd [5] of 0.257 nM and a Kd [19] of 0.045 nM. The IC50 [6] was 1.08 nM and the binding result (mouse LIGHT [7]) was “no binding”.

B6: 117C06 in human IgG4(PE) format (antibody, V domains shown)
VH: QVQLVQSGAEVKKPGASVKVSCKASGYTFVNFGISWVRQAPGQGLEWMGWISVYSGNTNYAQKLQGRVTLTTDTSTTTAYMELRSLRSDDTAVYYCARHNWNDYWGQGTLVTVSS
VL: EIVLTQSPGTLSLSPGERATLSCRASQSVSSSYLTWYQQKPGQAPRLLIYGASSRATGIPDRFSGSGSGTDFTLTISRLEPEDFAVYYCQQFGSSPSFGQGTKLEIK
B6: no binding [20].

Reference: US20170320956A1 (KYMAB, published 2017)
